Experimental data as given in PMC6818353, “Diversified Application of Barcoded PLATO (PLATO-BC) Platform for Identification of Protein Interactions” (Genomics, Proteomics & Bioinformatics, 2019).

Target: T1, N-terminal biotinylated ubiquitin (UniProt P0CG48 1-76, biotin on the N-terminus)
T1 construct: also called Bio-Ub; free ubiquitin peptide; source: bought: BostonBiochem (Catalog No. UB-570)
Assay: pull-down; 5 μg His-tagged protein incubated with 1 μg biotinylated molecule (H4ac peptide or Ub) in 50 mM Tris pH 7.5, 150 mM NaCl, 0.1% NP-40, 2 h at 4 °C; captured on streptavidin-coated beads; immunoblot with anti-V5
Conditions: both partners purified

B1: V5-His6-tagged RIOK3 protein, purified from E. coli (natural protein, human, UniProt O14730 1-519, looked up)
chain: MDLVGVASPEPGTAAAWGPSKCPWAIPQNTISCSLADVMSEQLAKELQLEEEAAVFPEVAVAEGPFITGENIDTSSDLMLAQMLQMEYDREYDAQLRREEKKFNGDSKVSISFENYRKVHPYEDSDSSEDEVDWQDTRDDPYRPAKPVPTPKKGFIGKGKDITTKHDEVVCGRKNTARMENFAPEFQVGDGIGMDLKLSNHVFNALKQHAYSEERRSARLHEKKEHSTAEKAVDPKTRLLMYKMVNSGMLETITGCISTGKESVVFHAYGGSMEDEKEDSKVIPTECAIKVFKTTLNEFKNRDKYIKDDFRFKDRFSKLNPRKIIRMWAEKEMHNLARMQRAGIPCPTVVLLKKHILVMSFIGHDQVPAPKLKEVKLNSEEMKEAYYQTLHLMRQLYHECTLVHADLSEYNMLWHAGKVWLIDVSQSVEPTHPHGLEFLFRDCRNVSQFFQKGGVKEALSERELFNAVSGLNITADNEADFLAEIEALEKMNEDHVQKNGRKAASFLKDDGDPPLLYDE
notes: also called V5-fused RIOK3; pET-DEST42-RIOK3; source: E. coli DE3 strain, purified
**Q.** Does B1 bind?
**A.** binds
